# B1: Hammerhead Ribozyme (parent)
# chain: ACCGGAUGUGCUUUCCGGUCUGAUGAGUCCGUGAGGACGAAACAG
# Variants of: B1
# Assay: self-cleavage, relative activity (ratio to wild type); higher = more cleavage; co-transcriptional
row,Variant,self-cleavage
1,G4A C30A,0.379
2,U14C U21G,0.319
3,U12A U13G,0.762
4,G27C A42C,0.272
5,G22U U32A,0.282
6,U14G G45C,0.879
7,G4U G35A,0.337
8,U12A U19C,0.366
9,A6C,0.722
10,U13C C30A,1.54
11,C2U C30U,1.04
12,U12A A44G,1.66
13,G17A U28A,0.42
14,G22A A37U,0.288
15,G22C A26U,0.343
16,G10U A34C,1.13
17,G5U U9C,0.881
18,A23C U24C,0.505
19,A1G G10C,1.61
20,U12G U32G,0.813
21,G10A A42C,0.406
22,G27A G39U,0.348
23,U24A G27C,0.685
24,A1U A42C,0.395

row,Variant,self-cleavage
1,U7G A37U,0.683
2,U24A G31A,1.15
3,A23U U32C,0.311
4,A6C U12G,0.991
5,G18C C30G,0.372
6,U12A G33U,1.03
7,A37G A40U,0.399
8,A1U A40U,0.349
9,G25C G31U,0.358
10,C20G U24C,0.302
11,C15A G36U,0.341
12,U32C C38G,0.691
13,G5C A42C,0.356
14,G8C A37U,0.842
15,A6G G39U,0.248
16,A6G G39C,0.297
17,G10U U19G,0.435
18,A34U A41C,0.289
19,A23U G25C,0.31
20,G4A G36A,0.367
21,C11U A42U,0.377
22,C3G A41U,0.3
23,C3G A41G,0.274
24,A41G,0.345

row,Variant,self-cleavage
1,A26U U32G,0.466
2,U32C A42G,0.364
3,G8A U13G,1.24
4,U9C C43A,0.314
5,G22A A41U,0.318
6,U19A A37C,0.43
7,A23U G27A,0.32
8,G35C C43U,0.387
9,G17U G25A,0.347
10,U28C G39U,0.291
11,U9G G25A,0.205
12,A1C A26U,0.352
13,G10A A37C,1.19
14,C3U G10A,1.47
15,C20U A44U,0.324
16,C15G A41U,0.307
17,C30A A37U,0.42
18,G5A G25A,0.327
19,A1C A40G,0.298
20,G4A G45U,0.418
21,C3U A41G,0.354
22,G10U A26G,0.317
23,G31U G35C,0.654
24,G39U,0.363

row,Variant,self-cleavage
1,U21G C30A,0.419
2,G4U C30U,0.558
3,U12G U14C,0.677
4,G25C A40C,0.359
5,U19A C30U,0.369
6,G27C A44G,0.988
7,U12A G17U,0.827
8,U21G G39C,0.314
9,U13G G33C,1.06
10,A6U C20A,0.373
11,U19G A26G,0.319
12,C3U G31A,1.06
13,G17A G25U,0.372
14,C2U U12G,1.21
15,C16U G45U,0.688
16,C2U A34U,0.972
17,C16A A42U,0.27
18,C2U U28G,0.7
19,U13A G18U,1.23
20,U9C G10A,1.19
21,U21A G36A,0.41
22,G5C U28G,0.345
23,A1C G5U,0.444
24,G31C A41U,0.381

row,Variant,self-cleavage
1,U32A G39C,0.485
2,C2A C43G,0.338
3,A1U C3U,0.433
4,U13C C15G,0.728
5,U32C C43G,0.388
6,C3A A23U,0.28
7,U13A A42U,0.339
8,U7A U13G,1.29
9,U24A A41C,0.371
10,G17A C43U,0.335
11,U9A C16A,1.15
12,U14A A37U,0.618
13,A40U A44C,0.474
14,U21C G39C,0.378
15,C20A G36C,0.313
16,G4A C29U,0.543
17,G27U A41U,0.347
18,U14G A26C,0.764
19,U14G A26G,0.223
20,U24A A34U,0.849
21,A23C G33C,0.479
22,A23C G33A,0.621
23,A34C A44G,0.727
24,U9C A37C,1.03

row,Variant,self-cleavage
1,A37C A40U,0.268
2,G22U G25C,0.264
3,G18C U21A,0.333
4,A6C G45A,0.384
5,A6G G17C,0.494
6,U9G G27C,0.455
7,G33A A34C,1
8,G33A A34U,0.873
9,C16G C30A,0.712
10,G8U A23G,0.363
11,C3U A6U,0.609
12,U12C G33U,1.37
13,G27U A37C,0.308
14,C3U U19A,0.385
15,C16A G18U,0.525
16,C2A U12C,0.5
17,A1U C16G,0.459
18,G18U G31A,0.905
19,G18U G22C,0.372
20,U14A C16G,0.403
21,U21C A23G,0.354
22,G18A U28C,0.388
23,G18A U32G,0.744
24,G10U C29U,0.94

row,Variant,self-cleavage
1,U19C U28G,0.435
2,C20G C43G,0.432
3,G18A G36C,0.299
4,C20G A42C,0.307
5,C30G G33C,0.807
6,G5C A34C,0.336
7,U19C U24A,0.776
8,C3A U14C,0.436
9,U13A,1.31
10,G33A G35A,0.825
11,U7G C29U,1.02
12,C11A G27U,0.684
13,U9C C30A,0.902
14,A6U G8C,0.769
15,U7A C11A,1.55
16,G17A G35U,0.455
17,U21A C38G,0.378
18,A1G A42C,0.361
19,C2U A23U,0.415
20,U21C A37C,0.907
21,G5C C16A,1.19
22,G17C C29A,0.419
23,G5U U14A,1.24
24,G36A A40U,0.384

row,Variant,self-cleavage
1,U12A C15U,0.668
2,G8U U21C,0.819
3,C2A U14G,0.697
4,C11G U24C,1.07
5,C16G A42G,0.346
6,A26U G27A,0.518
7,G4C A41C,0.316
8,C3U,1.03
9,U9A C20A,0.438
10,A44U G45U,1.91
11,C2A G17U,0.365
12,G22U G35C,0.311
13,A1U U9C,0.656
14,C30A G36A,0.573
15,U14C G22C,0.294
16,G36C G45C,0.393
17,C20U G35C,0.407
18,C15U U28G,0.568
19,G8C,1.06
20,U7G G22C,0.389
21,A6C U28G,0.354
22,C30U A37C,1.08
23,G8C C20U,0.433
24,G27A A37G,0.691

row,Variant,self-cleavage
1,U28C A40G,0.356
2,A1G G8C,1.47
3,G36U A44U,0.379
4,U9A A42C,0.32
5,G10A G39A,0.373
6,U21A G25C,0.312
7,G36A G39A,0.337
8,C16G G39A,0.254
9,U12C G18A,0.627
10,A1C A34C,0.477
11,G22A C30G,0.343
12,A26U A34U,0.584
13,G22C A37U,0.259
14,G10U G18C,0.682
15,C29A G35A,0.618
16,C16U A44G,1.34
17,C29A G36C,0.718
18,A23U G39C,0.341
19,G8A G36A,0.424
20,A37U C43A,0.31
21,U13G U32A,1.01
22,G5U G39A,0.339
23,G18A C30G,0.381
24,U7A A44C,0.397

row,Variant,self-cleavage
1,U19C G31C,0.657
2,U21A U32A,0.539
3,U32A C38A,0.681
4,U7C G39U,0.426
5,C16A A26C,0.433
6,G27C G45U,0.564
7,G18U C43U,0.402
8,G18A A23C,0.355
9,C2A A42C,0.355
10,C15U A42U,0.329
11,C2U C29G,1.02
12,C3G G36A,0.271
13,G5U U21C,0.668
14,G36A A37G,0.556
15,C15A G27U,0.4
16,G5C U19C,0.269
17,U7C A44U,0.582
18,U7C A44C,0.631
19,U9G U24G,0.671
20,G27U C38U,0.683
21,A1U C29A,0.435
22,A23C G36C,0.351
23,A1U G35A,0.635
24,G4C U32C,0.736

row,Variant,self-cleavage
1,A6G A41G,0.266
2,A41C G45A,0.39
3,G31U A41C,0.388
4,C15G G45A,0.446
5,C15G G45U,0.421
6,U32A A40U,0.405
7,U32A A40C,0.622
8,U21C C38G,0.659
9,U21C C38A,0.711
10,C16A A34G,1.17
11,C16A A34C,0.799
12,G5C A6C,0.423
13,G31C C43G,0.34
14,U7C G27A,0.814
15,U14G G33C,0.528
16,C16G A23C,0.369
17,U32A G36U,0.668
18,G17A G27A,0.51
19,A1C C2A,1.75
20,G18C C43G,0.358
21,G27C A41G,0.457
22,C11U U14C,0.771
23,G8A A44C,0.508
24,U21C U32G,0.947

row,Variant,self-cleavage
1,G8A C16A,1.2
2,C15G C16G,0.384
3,G8C U24A,1.17
4,G10U U28A,0.771
5,G18C A23G,0.379
6,G18C A23C,0.298
7,U24G U32C,0.858
8,G18A C38U,0.531
9,U7A C29G,0.663
10,G22A G31A,0.337
11,G22A G31C,0.396
12,G4U G8C,0.377
13,U28A A44G,0.596
14,U9A G33U,0.908
15,A37G C38G,0.79
16,G8U U14C,1.06
17,U28C A37C,0.467
18,C20G A26C,0.404
19,G8C C38U,0.979
20,U9G A40U,0.304
21,C16A G36C,0.38
22,U19C A41G,0.228
23,U19C A41U,0.271
24,U7C U24A,1.4

row,Variant,self-cleavage
1,U19C G27U,0.311
2,A1G U32G,1.45
3,G8A U19A,0.402
4,U9A A23U,0.337
5,U13C G36A,0.701
6,U19G U24A,0.472
7,U13A G39C,0.341
8,C16U A23U,0.358
9,C16U A23C,0.474
10,G8A U32C,1.02
11,G8A A42U,0.297
12,G10A G18C,0.615
13,C11U G36U,0.669
14,A23C A37C,0.384
15,C30U G45A,0.606
16,C2U G4A,0.361
17,A6G C43U,0.321
18,U7A G27A,0.66
19,G22A G27U,0.28
20,A6G U9A,0.796
21,C30U A34C,1.03
22,G33C C43G,0.28
23,G36U C43U,0.304
24,U9G U12A,1.04

row,Variant,self-cleavage
1,U7A C43G,0.237
2,G22A A44U,0.314
3,U24C U28A,0.614
4,U19C A44U,0.258
5,G8A C30U,0.826
6,U28G C38A,0.64
7,U28C G33C,0.906
8,G8U G25A,0.317
9,U28A G36C,0.396
10,U7C A41U,0.336
11,A26C A41C,0.369
12,U9G G22U,0.358
13,G10A C11U,1.38
14,G4A G35A,0.386
15,A1G A44C,0.858
16,A1U C15U,0.55
17,U14C A37G,0.945
18,U19A G25A,0.347
19,G25U G39C,0.302
20,U19C C30G,0.459
21,G22A C38G,0.329
22,G18U U28A,0.461

# From the RNAGym collection of RNA variant scans (doi:10.7554/elife.80360)
